The values that follow come from US20220411483A1 (Chugai, published 2022).

The target of experiment [1] is T1, human IgE (human).
T1 construct: recombinant antigen; its variable region is from an anti-human glypican 3 antibody; also called hIgE
Description: SPR Biacore T200, 37 C; pH/Ca dependency. The source says: (§1) 1.2 mmol/1 CaCl₂/0.05% tween20, 20 mmol/l ACES, 150 mmol/l NaCl, pH 7.4 [0568] 1.2 mmol/1 CaCl₂/0.05% tween20, 20 mmol/l ACES, 150 mmol/l NaCl, pH 5.8 [0569] 3 μmol/l CaCl₂/0.05% tween20, 20 mmol/l ACES, 150 mmol/l NaCl, pH 5.8
(§2) A peptide produced by adding biotin to Lys present at the C terminus of a chemically synthesized human glypican 3 protein-derived sequence (SEQ ID NO: 12) (hereinafter written as “biotinylated GPC3 peptide”) added at an appropriate amount was immobilized onto Sensor chip SA (GE Healthcare) utilizing the affinity between streptavidin and biotin. An appropriate concentration of human IgE was injected and trapped with the biotinylated GPC3 peptide to immobilize human IgE onto the chip. […] Then, 10 mmol/L glycine-HCl (pH 1.5) was injected to regenerate the sensor chip. All of the assay for the interaction was performed at 37° C. Using Biacore T200 Evaluation Software (GE Healthcare), the assay results were analyzed by curve fitting to determine the binding rate constant ka (1/Ms) and dissociation rate constant kd (1/s). Dissociation constant KD (M) was calculated from the above constants.

The target of experiment [2] is T1, human IgE. The experiment can be described thus: SPR Biacore T200, 37 C, hIgE on chip, antibody analyte; pH 5.8, 3 µM Ca.
Excerpt: as §1, §2
For orientation: Surface plasmon resonance follows binding to a sensor surface in real time, without labels.

Experiment [3] has as its target T1, human IgE. The experiment can be described thus: SPR Biacore T200, 37 C, hIgE on chip, antibody analyte; pH 5.8, 1.2 mM Ca.
Excerpt: as §1, §2

In experiment [4] the target is T1, human IgE. The experiment can be described thus: SPR Biacore T200, 37 C; pH dependency.
Excerpt: as §1, §2

Experiment [5] addresses T1, human IgE. The experiment can be described thus: SPR Biacore T200, 37 C, hIgE on chip, antibody analyte; pH 7.4, 1.2 mM Ca.
Excerpt: as §1, §2

Experiment [6] addresses T2, Human IgA (recombinant, H (WT)-IgA1 / L (WT)) (human).
T2 construct: used as the antigen (analyte); also called hIgA
Description: SPR (Biacore T200), antibody on Protein A/G, hIgA analyte, 37C; pH 7.4, 3 µM Ca; 1:1 binding model. The procedure: (§3) The hIgA-binding activities (dissociation constant KD (M)) of the antibodies isolated in (1-3) were assessed using Biacore T200 (GE Healthcare). Measurements were performed using a 0.05% tween20, 20 mmol/L ACES, 150 mmol/L NaCl (pH 7.4 or pH 5.8) solution containing 3 μM or 1.2 mM CaCl₂, or a 0.05% tween20, 20 mmol/L ACES, 150 mmol/L NaCl (pH 8.0) solution containing 0.1 μM or 10 mM CaCl₂ as a running buffer.
(§4) An appropriate amount of recombinant Protein A/G (Thermo Scientific) was immobilized onto a Sensor chip CMS (GE Healthcare) by an amino coupling method, and the antibody was allowed to bind thereto. Then, an appropriate concentration of hIgA (described in (1-1)) was injected as an analyte and allowed to interact with the antibody on the sensor chip. The measurement was carried out at 37° C. After measurement, 10 mmol/L glycine-HCl (pH 1.5) was injected to regenerate the sensor chip. From the measurement result, the dissociation constant KD (M) was calculated by curve fitting analysis and equilibrium analysis using Biacore T200 Evaluation Software (GE Healthcare).

The target of experiment [7] is T2, Human IgA (recombinant, H (WT)-IgA1 / L …). The experiment can be described thus: SPR (Biacore T200), antibody on Protein A/G, hIgA analyte, 37C; pH 5.8, 1.2 mM Ca; 1:1 binding model. The procedure:
as §3, §4

The target is the same in experiment [8]. Description: SPR (Biacore T200), antibody on Protein A/G, hIgA analyte, 37C; pH 5.8, 3 µM Ca; 1:1 binding model. The procedure:
as §3, §4

The target is the same in experiment [9]. The experiment can be described thus: SPR (Biacore T200), antibody on Protein A/G, hIgA analyte, 37C; pH 8.0, 10 mM Ca; 1:1 binding model. The procedure: as §3, §4
Experiment [10] shares this target. Description: SPR (Biacore T200), antibody on Protein A/G, hIgA analyte, 37C; pH 8.0, 0.1 µM Ca; 1:1 binding model. The procedure:
as §3, §4

The target is the same in experiment [11]. The experiment can be described thus: SPR (Biacore T200), antibody on Protein A/G, hIgA analyte, 37C; pH 7.4, 1.2 mM Ca; 1:1 binding model. The method, then:
as §3, §4

Experiment [12] shares this target. The experiment can be described thus: SPR (Biacore T200), antibody on Protein A/G, hIgA analyte, 37C; pH 5.8, 3 µM Ca; Steady State Affinity. The procedure:
as §3, §4

Experiment [13] has the same target. Description: SPR (Biacore T200), antibody on Protein A/G, hIgA analyte, 37C; pH 7.4, 3 µM Ca; Steady State Affinity. The method, then:
as §3, §4

The target is the same in experiment [14]. Description: SPR (Biacore T200), antibody on Protein A/G, hIgA analyte, 37C; pH 5.8, 1.2 mM Ca; Steady State Affinity. The procedure:
as §3, §4

The target is the same in experiment [15]. The experiment can be described thus: SPR (Biacore T200), antibody on Protein A/G, hIgA analyte, 37C; pH 7.4, 1.2 mM Ca; 1:1 binding model; pH 7.4, 1.2 mM Ca; 37 C; 1:1 binding model. The procedure:
as §3, §4

The next experiment has as its target T3, human IgA (hIgA) (human).
T3 construct: recombinant antigen
Description: SPR (Reference Example 3). The procedure: as §3, §4

Experiment [16] deals with T4, FcγRIa extracellular domain with C-terminal His tag (human, UniProt P12314 16-292).
T4 construct: also called FcgRIa
T4 sequence (P12314 16-292): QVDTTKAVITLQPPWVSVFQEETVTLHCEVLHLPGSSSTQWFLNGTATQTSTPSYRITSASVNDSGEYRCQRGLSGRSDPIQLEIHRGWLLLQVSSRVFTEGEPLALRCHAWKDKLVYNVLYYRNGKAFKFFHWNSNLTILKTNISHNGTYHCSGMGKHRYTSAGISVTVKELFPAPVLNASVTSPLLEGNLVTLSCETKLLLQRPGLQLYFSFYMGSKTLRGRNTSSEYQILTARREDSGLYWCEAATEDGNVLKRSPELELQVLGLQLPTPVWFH
Description: SPR (Biacore), FcgR as analyte.

For experiment [17], the target named is T5, FcγRIIb extracellular domain with C-terminal His tag (human, UniProt P31994 43-217).
T5 construct: extracellular domain; also called FcgRIIb
T5 sequence (looked up): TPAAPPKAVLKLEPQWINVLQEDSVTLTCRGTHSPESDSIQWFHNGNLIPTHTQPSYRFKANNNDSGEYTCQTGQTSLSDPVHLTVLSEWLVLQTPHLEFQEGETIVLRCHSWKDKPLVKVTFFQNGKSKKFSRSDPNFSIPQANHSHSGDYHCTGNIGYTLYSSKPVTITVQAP
Description: SPR (Biacore), FcgR as analyte.

Experiment [18] deals with T5, FcγRIIb extracellular domain with …. The experiment can be described thus: SPR (Biacore); KD of IL6R-B3/IL6R-L / KD of variant.
Another experiment has as its target T6, mouse FcγRIV (mouse, UniProt A0A0B4J1G0 21-203).
T6 construct: also called mFcγRIV
T6 sequence: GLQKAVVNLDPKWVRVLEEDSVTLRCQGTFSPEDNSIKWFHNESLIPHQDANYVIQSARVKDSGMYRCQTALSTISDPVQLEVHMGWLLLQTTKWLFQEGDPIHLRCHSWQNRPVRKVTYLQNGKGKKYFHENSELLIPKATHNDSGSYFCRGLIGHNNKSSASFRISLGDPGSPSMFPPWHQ
Description: SPR.

The target of a further experiment is T7, mouse FcγRI (mouse, UniProt P26151 25-297, limits assumed).
T7 construct: also called mFcγRI
T7 sequence (looked up): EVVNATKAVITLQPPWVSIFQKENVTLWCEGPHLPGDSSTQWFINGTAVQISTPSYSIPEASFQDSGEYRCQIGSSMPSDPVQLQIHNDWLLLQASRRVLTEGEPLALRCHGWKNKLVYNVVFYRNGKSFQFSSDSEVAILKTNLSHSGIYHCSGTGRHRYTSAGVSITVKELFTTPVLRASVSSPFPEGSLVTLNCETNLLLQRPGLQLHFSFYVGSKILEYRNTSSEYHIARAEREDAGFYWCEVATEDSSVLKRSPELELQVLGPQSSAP
Description: SPR.

T1 sequence (heavy, as listed by the source, chain 1 of 2, other chains not shown): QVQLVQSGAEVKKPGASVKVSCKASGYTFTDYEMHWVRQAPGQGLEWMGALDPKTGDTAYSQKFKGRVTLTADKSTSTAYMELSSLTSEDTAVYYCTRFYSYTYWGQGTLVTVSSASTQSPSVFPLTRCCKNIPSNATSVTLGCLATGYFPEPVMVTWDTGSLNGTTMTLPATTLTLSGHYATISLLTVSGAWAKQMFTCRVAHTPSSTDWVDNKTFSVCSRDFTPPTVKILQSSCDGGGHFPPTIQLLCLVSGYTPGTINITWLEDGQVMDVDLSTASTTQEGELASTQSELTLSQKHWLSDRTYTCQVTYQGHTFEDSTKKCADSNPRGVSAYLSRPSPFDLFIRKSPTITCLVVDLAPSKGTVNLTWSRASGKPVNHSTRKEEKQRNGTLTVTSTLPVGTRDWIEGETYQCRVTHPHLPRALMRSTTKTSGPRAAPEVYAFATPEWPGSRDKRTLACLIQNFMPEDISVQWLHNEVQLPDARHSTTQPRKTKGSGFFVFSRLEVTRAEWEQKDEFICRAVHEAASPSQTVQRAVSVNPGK
T2 sequence (VH, as listed by the source): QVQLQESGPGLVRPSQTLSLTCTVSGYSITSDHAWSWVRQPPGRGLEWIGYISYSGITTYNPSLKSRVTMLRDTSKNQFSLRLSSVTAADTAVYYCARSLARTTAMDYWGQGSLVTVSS
T3 sequence (VH, as listed by the source): as above

B1: clone 278 (IgG1) (antibody, V domains shown)
VH: QSLEESGGRLVTPGTPLTLTCTASGFSLSSYHMSWVRQAPGKGLEWIGVINSAGNTYYASWAKGRFTVSKTSTTVDLNLTSLTTEDTATYFCARYVFSSGSHDIWGPGTLVTVSS
VL: AYDMTQTPASVEVAVGGTVTIKCQASQSIGSWLAWYQQKPGQPPKELIYGTSTLESGVPSRFIGSGSGTEFTLTISGVECADAATYYCQQGYSEDNIDNAFGGGTEVVVKR
notes: pH-dependent anti-human IgE antibody with human IgG1 constant region
For the molecule B1, in the experiment with human IgE [1], the “KD(pH 5.8, 3 µM Ca)/KD(pH 7.4, 1.2 mM Ca)” value came to 1640 ratio. The values for the Kd with human IgE [2], in the experiment with human IgE [3] and in the experiment with human IgE [5] were 3900 nM, 2000 nM and 2.4 nM, respectively. The koff – broadly, the first-order rate constant of dissociation – in the experiment with human IgE [2] amounted to 0.24 s⁻¹; with human IgE [3], 0.23 s⁻¹; with human IgE [5], 0.0036 s⁻¹. The kon (usually a measure of how fast the partners come together) with human IgE [2] turned out to be 62000 M⁻¹ s⁻¹; with human IgE [3] it was 120000 M⁻¹ s⁻¹; with human IgE [5], 1.5e+06 M⁻¹ s⁻¹. In the experiment with human IgE [4], the “KD(pH 5.8, 1.2 mM Ca)/KD(pH 7.4, 1.2 mM Ca)” value turned out to be 842 ratio.

B2: GA1-IgG1 (antibody, V domains shown)
VH: EVQLVQSGAEVKKPGSSVKVSCKASGGTFSSYAISWVRQAPGQGLEWMGGIIPIFGTANYAQKFQGRVTITADESTSTAYMELSSLRSEDTAVYYCARVAPGNWGSPYFDYWGQGTLVTVSS
VL: DIQMTQSPSSLSASVGDRVTITCRASQSIEDDLAWYQQKPGKAPKLLIYEASSLQSGVPSRFSGSGSGTDFTLTISSLQPEDFATYYCQQRDSSPLTFGQGTKVEIKR
Turning to B2, the Kd (in general, the constant that tells how readily two partners part at equilibrium) was 190 nM in [6]; 140 nM in experiment [7]; 150 nM in experiment [8]; 100 nM in experiment [9]; 220 nM in [10]; 150 nM in [11].

B3: GA2-IgG1 (antibody, V domains shown)
VH: QVQLVQSGAEVKKPGSSVKVSCKASGGTFSSYAISWVRQAPGQGLEWMGGIIPIFGTANYAQKFQGRVTITADESTSTAYMELSSLRSEDTAVYYCARPRWETAISSDAFDIWGQGTMVTVSS
VL: DIQMTQSPSSLSASVGDRVTITCRASQSISDDLNWYQQKPGKAPKLLIYEASNLQSGVPSRFSGSGSGTDFTLTISSLQPEDFATYYCQQHSSSPLTFGQGTKVEIKR
B3: the Kd in experiment [12] came to 5000 nM; in [13], 6700 nM; in experiment [14], 4000 nM; in experiment [11] it was 39 nM. Also, in [15], the kon was 400000 M⁻¹ s⁻¹.

B4: GA2-IgG1 (antibody, V domains shown)
VH: QVQLVQSGAEVKKPGSSVKVSCKASGGTFSSYAISWVRQAPGQGLEWMGGIIPIFGTANYAQKFQGRVTITADESTSTAYMELSSLRSEDTAVYYCARPRWETAISSDAFDIWGQGTMVTVSS
VL: DIQMTQSPSSLSASVGDRVTITCRASQSISDDLNWYQQKPGKAPKLLIYEASNLQSGVPSRFSGSGSGTDFTLTISSLQPEDFATYYCQQHSSSPLTFGQGTKVEIKR
notes: also called GA-IgG1
Consider B4, for which the “Ca-dependent hIgA-binding activity (fold)” value with human IgA (hIgA) was at least 100 times.

B5: IL6R-BP198/IL6R-L (antibody, human IgG1, kappa, name in EU numbering)
heavy: QVQLQESGPGLVKPSETLSLTCAVSGHSISHDHAWSWVRQPPGEGLEWIGFISYSGITNYNPSLQGRVTISRDNSKNTLYLQMNSLRAEDTAVYYCARSLARTTAMDYWGEGTLVTVSSASTKGPSVFPLAPSSKSTSGGTAALGCLVKDYFPEPVTVSWNSGALTSGVHTFPAVLQSSGLYSLSSVVTVPSSSLGTQTYICNVNHKPSNTKVDKKVEPKSCDKTHTCPPCPAPDYLGGDSVFLFPPKPKDTLMISRTPEVTCVVVDVSDEDGEVKFNWYVDGVEVHNAKTKPREEQYNSTYRVVSVLTVLHQDWLNGKEYKCKVSNAALPKPIEKTISKAKGQPREPQVYTLPPSRDELTKNQVSLTCLVKGFYPSDIAVEWESNGQPENNYKTTPPVLDSDGSFFLYSKLTVDKSRWQQGNVFSCSVMHEALHNHYTQESLSLSP
light: not shown
notes: IgG1; alterations on IL6R-B3, EU numbering
On to B5, for which the figures for the Kd in experiment [16] and in experiment [17] were 11 nM and 200 nM, respectively. The “Relative FcgRIIb-binding Activity” value in experiment [18] worked out at 15.7 fold vs IL6R-B3/IL6R-L.

B6: VH3/L (WT)-mIgG1 (antibody)
heavy: QVQLQESGPGLVKPSETLSLTCAVSGHSISHDHAWSWVRQPPGEGLEWIGFISYSGITNYNPSLQGRVTISRDNSKNTLYLQMNSLRAEDTAVYYCARSLARTTAMDYWGEGTLVTVSSAKTTPPSVYPLAPGSAAQTNSMVTLGCLVKGYFPEPVTVTWNSGSLSSGVHTFPAVLQSDLYTLSSSVTVPSSTWPSETVTCNVAHPASSTKVDKKIVPRDCGCKPCICTVPEVSSVFIFPPKPKDVLTITLTPKVTCVVVDISKDDPEVQFSWFVDDVEVHTAQTQPREEQFNSTFRSVSELPIMHQDWLNGKEFKCRVNSAAFPAPIEKTISKTKGRPKAPQVYTIPPPKEQMAKDKVSLTCMITDFFPEDITVEWQWNGQPAENYKNTQPIMDTDGSYFVYSKLNVQKSNWEAGNTFTCSVLHEGLHNHHTEKSLSHSPGK
light: not shown
notes: mouse IgG1 Fc region
In the case of B6, the binding result with mouse FcγRIV and with mouse FcγRI was “no binding” in each case.
